In paper PMC5457521:

Assays:
[1] = molecular target: DENV2 sE FGA02 A259C, disulfide-linked dimer (Dengue virus serotype 2, strain FGA02); assay: SEC-MALS; sE alone, ~150 ug on Superdex 200 10/300 GL, Tris 50 mM, NaCl 500 mM (pH 8.0), 0.4 ml min^−1
[2] = molecular target: DENV2 sE FGA02 L107C/A313C, disulfide-linked dimer (Dengue virus serotype 2, strain FGA02); assay: SEC

Substance | stoichiometry N [1] | stoichiometry N [2]
DENV2 sE FGA02 A259C, disulfide-linked dimer (domain or fragment) | 2 | –
DENV2 sE FGA02 L107C/A313C, disulfide-linked dimer (domain or fragment) | – | 2
